Results from publication PMC10399232.

Target: eIF4E (mouse (endogenous in cerebellum)) (UniProt P63073)
Test: pull-down; m7GTP beads (30 ul) incubated with 500 ug mouse cerebellar lysate for 1 h at 4 C; lysis buffer 150 mM NaCl, 10 mM MgCl2, 30 mM tris pH 8.0, 1 mM DTT, 1.5% Triton X-100; washed three times in 100 mM KCl, 50 mM tris pH 7.4, 5 mM MgCl2, 0.5% Triton X-100; eIF4E and eIF4G blotted; eIF4G/eIF4E ratio normalized to the WT mean; CYFIP1 OE and WT mice

Chain of UniProt P63073 (P63073 whole entry): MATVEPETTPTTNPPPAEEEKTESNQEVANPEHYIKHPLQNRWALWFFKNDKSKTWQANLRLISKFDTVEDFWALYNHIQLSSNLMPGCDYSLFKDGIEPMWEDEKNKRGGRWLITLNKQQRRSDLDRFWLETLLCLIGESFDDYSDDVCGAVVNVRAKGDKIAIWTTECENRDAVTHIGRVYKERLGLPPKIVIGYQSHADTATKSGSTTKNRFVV

eIF4G/eIF4E binding ratio in CYFIP1 OE mice, normalized to WT mean (fold of WT mean): 1.68
Substance: eIF4G (natural protein)
